Target: the molecule itself
Assay: cryo-EM structure

B1: STRN3 (striatin 3), recombinant (natural protein, human, UniProt Q13033-2 1-713, looked up)
chain: MDELAGGGGGGPGMAAPPRQQQGPGGNLGLSPGGNGAAGGGGPPASEGAGPAAGPELSRPQQYTIPGILHYIQHEWARFEMERAHWEVERAELQARIAFLQGERKGQENLKKDLVRRIKMLEYALKQERAKYHKLKYGTELNQGDLKMPTFESEETKDTEAPTAPQNSQLTWKQGRQLLRQYLQEVGYTDTILDVRSQRVRSLLGLSNSEPNGSVETKNLEQILNGGESPKQKGQEIKRSSGDVLETFNFLENADDSDEDEENDMIEGIPEGKDKHRMNKHKIGNEGLAADLTDDPDTEEALKEFDFLVTAEDGEGAGEARSSGDGTEWAEPITFPSGGGKSFIMGSDDVLLSVLGLGDLADLTVTNDADYSYDLPANKDAFRKTWNPKYTLRSHFDGVRALAFHPVEPVLVTASEDHTLKLWNLQKTVPAKKSASLDVEPIYTFRAHIGPVLSLAISSNGEQCFSGGIDATIQWWNMPSPSVDPYDTYEPNVLAGTLVGHTDAVWGLAYSGIKNQLLSCSADGTVRLWNPQEKLPCICTYNGDKKHGIPTSVDFIGCDPAHMVTSFNTGSAVIYDLETSQSLVILSSQVDSGLQSNNHINRVVSHPTLPVTITAHEDRHIKFFDNKTGKMIHSMVAHLDAVTSLAVDPNGIYLMSGSHDCSIRLWNLDSKTCVQEITAHRKKLDESIYDVAFHSSKAYIASAGADALAKVFV
stoichiometry N: 4

— paper PMC8315899 (Nature structural & molecular biology, 2021)
